Variants at the floor of the assay were thinned out.
What was measured:
biotinyl-Phe-oxazolone = test: self-aminoacylation, catalytic enhancement (BFO) (fold over background); higher = more active; k-Seq, kA / k0A0; sequences stand for … in GGGAAUGGAUCCACAUCUACGAAUUC…UUCACUGCAGACUUGACGAAGCUG
In short: (§1)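 Mutagenized RNA pools with a 21-nt variable region (0.43 μM) reacted with each biotinyl-aminoacyl-oxazolone at 2–1250 μM. Reactions ran in 50 μL HEPES/NaCl/KCl/MgCl2/CaCl2 buffer with 5% acetonitrile, pH 6.9–7.0, for 90 minutes at room temperature. Streptavidin-captured RNA was quantified by triplicate qPCR and Illumina sequencing, and per-sequence fraction reacted was fit to a pseudo-first-order model with 1000 bootstraps. Catalytic enhancement is median kA divided by the uncatalyzed rate, the low-activity peak of a bimodal Gaussian fit.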

biotinyl-Met-oxazolone = test: self-aminoacylation, catalytic enhancement (BMO) (fold over background); higher = more active; k-Seq, kA / k0A0; sequences stand for … in GGGAAUGGAUCCACAUCUACGAAUUC…UUCACUGCAGACUUGACGAAGCUG
In short: as §1

biotinyl-Trp-oxazolone = test: self-aminoacylation, catalytic enhancement (BWO) (fold over background); higher = more active; k-Seq, kA / k0A0; sequences stand for … in GGGAAUGGAUCCACAUCUACGAAUUC…UUCACUGCAGACUUGACGAAGCUG
In short: as §1

biotinyl-Ile-oxazolone = test: self-aminoacylation, catalytic enhancement (BIO) (fold over background); higher = more active; k-Seq, kA / k0A0; sequences stand for … in GGGAAUGGAUCCACAUCUACGAAUUC…UUCACUGCAGACUUGACGAAGCUG
In short: as §1

biotinyl-Leu-oxazolone = test: self-aminoacylation, catalytic enhancement (BLO) (fold over background); higher = more active; k-Seq, kA / k0A0; sequences stand for … in GGGAAUGGAUCCACAUCUACGAAUUC…UUCACUGCAGACUUGACGAAGCUG
In short: as §1

biotinyl-Val-oxazolone = test: self-aminoacylation, catalytic enhancement (BVO) (fold over background); higher = more active; k-Seq, kA / k0A0; sequences stand for … in GGGAAUGGAUCCACAUCUACGAAUUC…UUCACUGCAGACUUGACGAAGCUG
In short: as §1

Sequence | self-aminoacylation (biotinyl-Phe-oxazolone) | self-aminoacylation (biotinyl-Met-oxazolone) | self-aminoacylation (biotinyl-Trp-oxazolone) | self-aminoacylation (biotinyl-Ile-oxazolone) | self-aminoacylation (biotinyl-Leu-oxazolone) | self-aminoacylation (biotinyl-Val-oxazolone)
AUUCACCUAGGUUAUCGGGUA [Fam2.2 aminoacylation ribozyme variant] | 13.3 | 2.55 | 3.37 | 2.02 | 3.54 | 2.49
AUUACCCUGGCUAUCGAGUGA [Fam2.1 aminoacylation ribozyme variant] | 4.17 | 2.14 | 2.49 | 1.54 | 2.35 | 1.82
AUUACCCAGGUCAUCGAGUUA [Fam2.1 aminoacylation ribozyme variant] | 1.39 | 0.882 | 1.32 | 1.01 | 0.915 | 1
AACUUUGAUAAUAGUCGCAAG [Fam3.1 aminoacylation ribozyme variant] | 2.61 | 1.66 | 1.55 | 1.71 | 1.91 | 1.42
AUAACCCUGGUCAUCGAGUGC [Fam2.1 aminoacylation ribozyme variant] | 4.44 | 1.96 | 1.89 | 1.33 | 2.44 | 1.42
AAGUUUGCUAAUAGUCGCUAU [Fam3.1 aminoacylation ribozyme variant] | 1.39 | 1.26 | 1.08 | 1.31 | 1.06 | 0.984
AAUCUCCUAGGUCAUCGGGUG [Fam2.2 aminoacylation ribozyme variant] | 35.1 | 6.93 | 5.91 | 4.3 | 6.83 | 4.51
ACACACUUCAAGCAAUCGGCC [Fam1B.1 aminoacylation ribozyme variant] | 4 | 2.21 | 6.35 | 2.7 | 2.54 | 2.57
AUUACCCUGAUCAUCGAGAGA [Fam2.1 aminoacylation ribozyme variant] | 0.905 | 0.577 | 0.629 | 1.02 | 0.765 | 0.913
CCAAACUUCAAGCAAUCGUUC [Fam1B.1 aminoacylation ribozyme variant] | 0.813 | 0.66 | 0.803 | 0.743 | 0.621 | 0.93
CUACACUUCAAGCAAUCGGUU [Fam1B.1 aminoacylation ribozyme variant] | 9.78 | 1.47 | 7.05 | 1.29 | 1.46 | 1.27
CAACACGUCAAGCAAUCGGUC [Fam1B.1 aminoacylation ribozyme variant] | 1.33 | 1.44 | 1.47 | 1.11 | 1.37 | 1.22
AUUACCGGGGUCAUCGAGUGA [Fam2.1 aminoacylation ribozyme variant] | 33.8 | 5.81 | 6.27 | 3.48 | 6.14 | 3.67
CCACACUAAAAGCAAUCGGUC [Fam1B.1 aminoacylation ribozyme variant] | 0.761 | 0.688 | 0.746 | 0.867 | 0.677 | 0.959
AAUACCCUGGUCAUAGAGUGA [Fam2.1 aminoacylation ribozyme variant] | 10.7 | 4.64 | 5.58 | 2.68 | 4.68 | 2.3
AAGUAUUCUAAUAGUCGCAAG [Fam3.1 aminoacylation ribozyme variant] | 7.07 | 1.58 | 1.83 | 1.61 | 1.71 | 1.6
CUACGUCAUACAAUCGGUCUG [Fam1A.1 aminoacylation ribozyme variant] | 1.1 | 1.1 | 0.994 | 1.1 | 1.27 | 1.09
AUUCACCUAGGACAUCGAGUG [Fam2.2 aminoacylation ribozyme variant] | 2.04 | 1.52 | 1.89 | 1.02 | 1.81 | 1.12
AUUACCCUGGUCAGCGGGUGA [Fam2.1 aminoacylation ribozyme variant] | 68.2 | 9.2 | 10.1 | 5.3 | 10.1 | 6.36
AUUCACCUAGGUAAUCGGGUC [Fam2.2 aminoacylation ribozyme variant] | 0.508 | 0.606 | 0.691 | 0.866 | 0.754 | 0.689
AAGUUUGCUAAUCUUCGCAAG [Fam3.1 aminoacylation ribozyme variant] | 0.816 | 1.07 | 1.19 | 1.11 | 0.95 | 1.07

Sequence | self-aminoacylation (biotinyl-Phe-oxazolone) | self-aminoacylation (biotinyl-Met-oxazolone) | self-aminoacylation (biotinyl-Trp-oxazolone) | self-aminoacylation (biotinyl-Ile-oxazolone) | self-aminoacylation (biotinyl-Leu-oxazolone) | self-aminoacylation (biotinyl-Val-oxazolone)
CUUCGUCAAACAAUCGGUCUG [Fam1A.1 aminoacylation ribozyme variant] | 9.15 | 1.65 | 2.23 | 1.87 | 1.62 | 1.55
CCACACUUCAAUCAAUGGGUC [Fam1B.1 aminoacylation ribozyme variant] | 0.724 | 0.651 | 0.467 | 0.801 | 0.564 | 0.724
CUCCUACAAACAAUCGGUCUG [Fam1A.1 aminoacylation ribozyme variant] | 0.939 | 0.838 | 0.924 | 0.836 | 0.873 | 0.693
AUUCACAAAGGUCAUCGGGUG [Fam2.2 aminoacylation ribozyme variant] | 84.3 | 9.76 | 8.7 | 5.84 | 12.2 | 5.83
GUUACCCGGGUCAUCGAGUGA [Fam2.1 aminoacylation ribozyme variant] | 62.8 | 8.11 | 8.97 | 4.5 | 9.84 | 4.77
CUACUUCAAUCAAUCAGUCUG [Fam1A.1 aminoacylation ribozyme variant] | 16.5 | 0.809 | 6.4 | 0.942 | 0.946 | 0.86
AUUCACCUAUGUCAUCGGGGG [Fam2.2 aminoacylation ribozyme variant] | 6.23 | 2 | 1.58 | 1.5 | 1.93 | 1.38
AUUACCCUGUUCAUAGAGUGA [Fam2.1 aminoacylation ribozyme variant] | 110 | 15.6 | 18 | 6.48 | 14.6 | 6.44
CCACACUUUAAGAAAUCGGUC [Fam1B.1 aminoacylation ribozyme variant] | 0.835 | 0.607 | 0.727 | 0.841 | 0.782 | 0.663
AAUACCCUGGUCAUCGAAUGA [Fam2.1 aminoacylation ribozyme variant] | 0.529 | 0.76 | 1.17 | 0.855 | 0.724 | 0.781
AUUCACCUUGGUCAUAGGGUG [Fam2.2 aminoacylation ribozyme variant] | 1.15 | 1.21 | 1.05 | 0.995 | 1.59 | 1.16
CUACUUCAGAUAAUCGGUCUG [Fam1A.1 aminoacylation ribozyme variant] | 0.629 | 0.648 | 0.432 | 0.643 | 0.675 | 0.686
AAGUUUGCUAAUAGUAGCAAU [Fam3.1 aminoacylation ribozyme variant] | 1.15 | 1.57 | 1.78 | 1.32 | 1.11 | 1.32
AUUCACACAGGUCAUCGGGUG [Fam2.2 aminoacylation ribozyme variant] | 39.6 | 5.6 | 5.26 | 4.03 | 7.14 | 4.47
AUUCACCUUGGUCAUCGGUUG [Fam2.2 aminoacylation ribozyme variant] | 0.347 | 0.844 | 0.806 | 0.9 | 0.855 | 1.06
UUUAACCUGGUCAUCGAGUGA [Fam2.1 aminoacylation ribozyme variant] | 11.2 | 5.83 | 8.93 | 4.01 | 5.8 | 4.17
AUUCACCAAGAUCAUCGGGUG [Fam2.2 aminoacylation ribozyme variant] | 33.2 | 4.4 | 4.68 | 3.1 | 5.42 | 3.21
AUUAUCGUGGUCAUCGAGUGA [Fam2.1 aminoacylation ribozyme variant] | 27.7 | 4.44 | 5.66 | 2.83 | 4.54 | 3.25
GUACUUCAAACAAUCGAUCUG [Fam1A.1 aminoacylation ribozyme variant] | 1.72 | 0.863 | 1.64 | 1.18 | 0.862 | 0.987
AUUCACCUAGGUAAUCAGGUG [Fam2.2 aminoacylation ribozyme variant] | 1.21 | 1.25 | 0.933 | 0.967 | 1.31 | 0.989
CUACUUGAUACAAUCGGUCUG [Fam1A.1 aminoacylation ribozyme variant] | 0.52 | 0.735 | 0.517 | 0.753 | 0.734 | 0.776

— the supplement of paper PMC9233669
